Holding throughout (test): pull-down
The target in experiment [1] is T1, Strep II-tagged UAF1 (UniProt Q8TAF3 1-677).
In experiment [2] the target is Strep II-tagged UAF1 K595E/H599A double mutant (UniProt Q8TAF3 1-677, K595E | H599A).
For experiment [3], the target named is Strep II-tagged UAF1 K459E (UniProt Q8TAF3 1-677, K459E).
Experiment [4] deals with Strep II-tagged UAF1 K595E (UniProt Q8TAF3 1-677, K595E).
For experiment [5], the target named is Strep II-tagged UAF1 H599A (UniProt Q8TAF3 1-677, H599A).
Experiment [6] has as its target T1, Strep II-tagged UAF1. The source holds these as a separate data set.
A further experiment concerns the target T2, RAD51 (UniProt Q06609 1-339).
T2 sequence (looked up): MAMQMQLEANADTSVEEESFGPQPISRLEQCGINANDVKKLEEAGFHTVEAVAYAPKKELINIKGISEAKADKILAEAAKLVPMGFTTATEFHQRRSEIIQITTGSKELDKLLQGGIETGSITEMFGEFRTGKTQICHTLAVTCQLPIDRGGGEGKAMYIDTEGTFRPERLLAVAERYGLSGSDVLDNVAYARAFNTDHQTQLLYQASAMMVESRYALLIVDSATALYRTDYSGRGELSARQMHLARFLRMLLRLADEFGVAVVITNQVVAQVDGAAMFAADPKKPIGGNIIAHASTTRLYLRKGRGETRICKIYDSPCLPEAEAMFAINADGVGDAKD

Experiment [7] addresses T1, Strep II-tagged UAF1. The source holds these as a separate data set.

Read-outs that look alike come from different tables or passages of the source.

T1 sequence (Q8TAF3 whole entry): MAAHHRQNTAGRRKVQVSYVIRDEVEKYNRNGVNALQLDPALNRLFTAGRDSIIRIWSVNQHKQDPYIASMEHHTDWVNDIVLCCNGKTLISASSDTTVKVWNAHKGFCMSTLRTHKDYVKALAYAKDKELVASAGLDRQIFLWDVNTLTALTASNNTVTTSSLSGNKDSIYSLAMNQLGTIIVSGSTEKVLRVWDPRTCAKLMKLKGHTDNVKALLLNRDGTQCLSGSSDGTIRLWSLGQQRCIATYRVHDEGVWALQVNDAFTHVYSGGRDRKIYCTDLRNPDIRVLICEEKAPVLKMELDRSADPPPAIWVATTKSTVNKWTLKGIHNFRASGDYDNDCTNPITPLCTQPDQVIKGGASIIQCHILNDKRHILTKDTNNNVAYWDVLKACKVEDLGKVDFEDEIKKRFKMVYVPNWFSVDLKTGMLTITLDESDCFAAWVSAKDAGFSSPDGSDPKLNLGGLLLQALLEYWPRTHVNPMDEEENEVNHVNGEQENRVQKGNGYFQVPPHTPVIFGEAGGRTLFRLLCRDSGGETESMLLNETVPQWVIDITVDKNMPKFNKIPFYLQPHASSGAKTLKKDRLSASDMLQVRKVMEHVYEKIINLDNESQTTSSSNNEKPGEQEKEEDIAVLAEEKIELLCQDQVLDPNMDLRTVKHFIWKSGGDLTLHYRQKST
Chain of Strep II-tagged UAF1 K459E (Q8TAF3 whole entry K459E): as the sequence (Q8TAF3 whole entry) above, with K459E counted along it
Chain of Strep II-tagged UAF1 K595E (Q8TAF3 whole entry K595E): as the sequence (Q8TAF3 whole entry) above, with K595E counted along it
Chain of Strep II-tagged UAF1 H599A (Q8TAF3 whole entry H599A): as the sequence (Q8TAF3 whole entry) above, with H599A counted along it
Chain of Strep II-tagged UAF1 K595E/H599A double mutant (Q8TAF3 whole entry K595E/H599A): as the sequence (Q8TAF3 whole entry) above, with K595E, H599A counted along it

B1: GST-tagged RAD51AP1 (natural protein, UniProt Q96B01-2 1-335, looked up)
chain: MVRPVRHKKPVNYSQFDHSDSDDDFVSATVPLNKKSRTAPKELKQDKPKPNLNNLRKEEIPVQEKTPKKRMALDDKLYQRDLEVALALSVKELPTVTTNVQNSQDKSIEKHGSSKIETMNKSPHISNCSVASDYLDLDKITVEDDVGGVQGKRKAASKAAAQQRKILLEGSDGDSANDTEPDFAPGEDSEDDSDFCESEDNDEDFSMRKSKVKEIKKKEVKVKSPVEKKEKKSKSKCNALVTSVDSAPAAVKSESQSLPKKVSLSSDTTRKPLEIRSPSAESKKPKWVPPAASGGSRSSSSPLVVVSVKSPNQSLRLGLSRLARVKPLHPNATST
For the molecule B1, the binding result (in the experiment with Strep II-tagged UAF1 [1]; in experiment [2]; in experiment [3]; in experiment [4]; in experiment [5]) was “binds” throughout.

B2: RAD51AP1 (no tag named) (natural protein, UniProt Q96B01-2 1-335, looked up)
chain: MVRPVRHKKPVNYSQFDHSDSDDDFVSATVPLNKKSRTAPKELKQDKPKPNLNNLRKEEIPVQEKTPKKRMALDDKLYQRDLEVALALSVKELPTVTTNVQNSQDKSIEKHGSSKIETMNKSPHISNCSVASDYLDLDKITVEDDVGGVQGKRKAASKAAAQQRKILLEGSDGDSANDTEPDFAPGEDSEDDSDFCESEDNDEDFSMRKSKVKEIKKKEVKVKSPVEKKEKKSKSKCNALVTSVDSAPAAVKSESQSLPKKVSLSSDTTRKPLEIRSPSAESKKPKWVPPAASGGSRSSSSPLVVVSVKSPNQSLRLGLSRLARVKPLHPNATST
Take B2: the binding result in the experiment with Strep II-tagged UAF1 [6] and in the experiment with RAD51 was “binds” in each case.

B3: RAD51AP1 H329A mutant (natural protein, UniProt Q96B01-2 1-335, looked up)
chain: MVRPVRHKKPVNYSQFDHSDSDDDFVSATVPLNKKSRTAPKELKQDKPKPNLNNLRKEEIPVQEKTPKKRMALDDKLYQRDLEVALALSVKELPTVTTNVQNSQDKSIEKHGSSKIETMNKSPHISNCSVASDYLDLDKITVEDDVGGVQGKRKAASKAAAQQRKILLEGSDGDSANDTEPDFAPGEDSEDDSDFCESEDNDEDFSMRKSKVKEIKKKEVKVKSPVEKKEKKSKSKCNALVTSVDSAPAAVKSESQSLPKKVSLSSDTTRKPLEIRSPSAESKKPKWVPPAASGGSRSSSSPLVVVSVKSPNQSLRLGLSRLARVKPLAPNATST
In the case of B3, the binding result with Strep II-tagged UAF1 [7] is “binds”.

B4: RAD51AP1 1-145 fragment (domain or fragment, UniProt Q96B01-2 1-145, looked up)
chain: MVRPVRHKKPVNYSQFDHSDSDDDFVSATVPLNKKSRTAPKELKQDKPKPNLNNLRKEEIPVQEKTPKKRMALDDKLYQRDLEVALALSVKELPTVTTNVQNSQDKSIEKHGSSKIETMNKSPHISNCSVASDYLDLDKITVEDD
With B4, in the experiment with Strep II-tagged UAF1 [7], the binding result is given as “binds”.

B5: RAD51AP1 fragment, amino acid residues 95-187 (domain or fragment, UniProt Q96B01-2 95-187, looked up)
chain: TVTTNVQNSQDKSIEKHGSSKIETMNKSPHISNCSVASDYLDLDKITVEDDVGGVQGKRKAASKAAAQQRKILLEGSDGDSANDTEPDFAPGE
As for B5, in the experiment with Strep II-tagged UAF1 [7], the binding result is “binds”.

B6: RAD51AP1 ΔN25 mutant (domain or fragment, UniProt Q96B01-2 26-335, looked up)
chain: VSATVPLNKKSRTAPKELKQDKPKPNLNNLRKEEIPVQEKTPKKRMALDDKLYQRDLEVALALSVKELPTVTTNVQNSQDKSIEKHGSSKIETMNKSPHISNCSVASDYLDLDKITVEDDVGGVQGKRKAASKAAAQQRKILLEGSDGDSANDTEPDFAPGEDSEDDSDFCESEDNDEDFSMRKSKVKEIKKKEVKVKSPVEKKEKKSKSKCNALVTSVDSAPAAVKSESQSLPKKVSLSSDTTRKPLEIRSPSAESKKPKWVPPAASGGSRSSSSPLVVVSVKSPNQSLRLGLSRLARVKPLHPNATST
As for B6, the binding result with Strep II-tagged UAF1 [7] is “binds”.

These data come from article PMC5381662 (Cell reports, 2016).
